Laboratory results reported in the DeepSol protein solubility set.

Test: soluble on expression in E. coli; label from the status in PepcDB or PDB records
In the case of “MVTLILLAGGSGTRASLNLPKQYYRIEEKMVIEYTLENVSRVKGVDNIILVSNPRFMDTALELKESFPKIKDVAKGGRTRNESIYNGFMKVPQKESKILVHDAVRPFTPRWVFERIISLLDERDVITTVNPITGNLIELDNGKVKRIYDRSKFAIGEAPTGYRYGALKKTLEVAVSNGTLNEIPHDIVLAMNAGFDVYVLPCNCFNLKITFKEDIEIARTLIKMLEERE”, the “soluble on expression in E. coli” value is reported as “soluble”.
For “MVTLYGIKNCDTIKKARRWLEANNIDYRFHDYRVDGLDSELLNGFINELGWEALLNTRGTTWRKLDETTRNKITDAASAAALMTEMPAIIKRPLLCAPGKPMLLGFSDSSYQQFFHEV”, the “soluble on expression in E. coli” value was “not soluble”.
With “MVYDLAIIGGGINGCGIARDAAGRGHSVFLCEMNDLASGTSSWSTKLIHGGLRYLEYFEFRLVREALIERERLWQIAPHIIGPLRFVLPHHDGLRPAWRLRLGLFMYDYLGGRKLLPPTRSVDLAHDEVGKPLIPGRYTKGFEYSDCFVDDARLVVLTARDAAERGAEIRTRTRAVQVSQQGGIWQVTLEDVGSGARSTIQARALVNAAGPWVEGVLRSGAGVDARYKVRLVQGSHIVTRKLYDHDRAYIFQNADGRIVFAIPYQGDFTLIGTTDRDYHGDPSQVKATPEEIDYLCKAVSGYFAKPVTPADVVWTFSGVRPLYDDGASEAKAATRDYVFELDTPGGAPLLSIYGGKITTYRRLAEEALEKLSSYLKGGTAKQGWTAHQPLPGGDFPVDGGPALIGDLLREYPFLASAHASRLVHAYGTRARDVLGSAKSAADLGRDFGATLTEAEVRYLMSREWACSADDIVWRRSKLGLRLTPAAVAALDEWVIVHRAAEKPQQQAGGRALEHHHHHH” the “soluble on expression in E. coli” value was “not soluble”.
With “MWEHDIVLEKIVDPVPDALYPCCIKAVRVGLKEDSWGEVQAIEEEMSTAELTANVNVALAPFQRKVVKEEGEAKKTKRAASKGRVEEVEQDVWKTLFDQALAYRDLAPWTWMDDDQIFAVVTPDGESLYCTVIGALGQEYGLVIYMGEEGYACLQDILSGTLHPKDAVFKERALLVSLAPRNHLERDDKALLRKHHIPVSGKQLLPMFRSFVPGYYPWFLSEEEAAWAAMALEQAVVVAERLRDGELFLASSARGNRLFARIAERREDGLHWRDGWVPPPKAKKKETSALDIGTDELAKAKTLERAPLFVEFSVAYVNRPIQERRWERPYFPLLVLAADAASGVILHHQVFRGQTDAKTLQQSFLAFARALGCVPSHVRVTKEHGPLLAPLLRELGVNMSTGPTPRSDEVRELFEQFAI” the “soluble on expression in E. coli” value was “not soluble”.
With “MWLSGARLVLPDRVLTEGSLRLEGERIAEVREGFVPSGMDLRGFTVVPGLVDLHGDSLERELEPRPGVRLPLELALPSWELRQLAAGITTVYATVAFWEGAGGVREPDQGLRLAQELWGLRSALHVDLRIHARYEVSRPQGEPAVREALRKGWVHLLSFMDHTPGQGQFHDLETYVRYMARHHGRPEAEVYDEVKRLSTRATWEGLEALAAEALAKSIPLASHDDDTPDRVALMARLGVTVSEFPVRLEAAKEAKVRGMTVVMGAPNALRGGSHHGNLSALDALREGLLDALATDYLPEAALRAPFRLAAQGLLDLPLALALVTRRPALAVGLADRGALAPGLRADLVVLKESPFSVLGAFVAGKPVFVGGELAHALA” the “soluble on expression in E. coli” value was “soluble”.
With “MWLWRKLWGIGGTMSRNTEATDDVKTWTGGPLNYKEGFFTQLATDELAKGINEEVVRAISAKRNEPEWMLEFRLNAYHAWLEMEEPHWLKAHYDKLNYQDYSYYSAPSCGNCDDNCASEPGAVQQTGANAFLSKEVEAAFEQLGVPVREGKEVAVDAIFDSVSVATTYREKLAEQGIIFCSFGEAIHDHPELVRKYLGTVVPGNDNFFAALNAAVASDGTFIYVPKGVRCPMELSTYFRINAEKTGQFERTILVADEDSYVSYIEGCSAPVRDSYQLHAAVVEVIIHKNAEVKYSTVQNWFPGDNNTGGILNFVTKRALCEGENSKMSWTQSETGSAITWKYPSCILRGDNSIGEFYSVALTSGHQQADTGTKMIHIGKNTKSTIISKGISAGHSQNSYRGLVKIMPTATNARNFTQCDSMLIGANCGAHTFPYVECRNNSAQLEHEATTSRIGEDQLFYCLQRGISEEDAISMIVNGFCKDVFSELPLEFAVEAQKLLAISLEHSVG” the “soluble on expression in E. coli” value was “soluble”.
With “MWNMLIVAMCLALLGCLQAQELQGHVSIILLGATGDLAKKYLWQGLFQLYLDEAGRGHSFSFHGAALTAPKQGQELMAKALESLSCPKDMAPSHCAEHKDQFLQLSQYRQLKTAEDYQALNKDIEAQLQHAGLREAGRIFYFSVPPFAYEDIARNINSSCRPGPGAWLRVVLEKPFGHDHFSAQQLATELGTFFQEEEMYRVDHYLGKQAVAQILPFRDQNRKALDGLWNRHHVERVEIIMKETVDAEGRTSFYEEYGVIRDVLQNHLTEVLTLVAMELPHNVSSAEAVLRHKLQVFQALRGLQRGSAVVGQYQSYSEQVRRELQKPDSFHSLTPTFAGVLVHIDNLRWEGVPFILMSGKALDERVGYARILFKNQACCVQSEKHWAAAQSQCLPRQLVFHIGHGDLGSPAVLVSRNLFRPSLPSSWKEMEGPPGLRLFGSPLSDYYAYSPVRERDAHSVLLSHIFHGRKNFFITTENLLASWNFWTPLLESLAHKAPRLYPGGAENGRLLDFEFSSGRLFFSQQQPEQLVPGPGPAPMPSDFQVLRAKYRESPLVSAWSEELISKLANDIEATAVRAVRRFGQFHLALSGGSSPVALFQQLATAHYGFPWAHTHLWLVDERCVPLSDPESNFQGLQAHLLQHVRIPYYNIHPMPVHLQQRLCAEEDQGAQIYAREISALVANSSFDLVLLGMGADGHTASLFPQSPTGLDGEQLVVLTTSPSQPHRRMSLSLPLINRAKKVAVLVMGRMKREITTLVSRVGHEPKKWPISGVLPHSGQLVWYMDYDAFLG” the “soluble on expression in E. coli” value was “soluble”.
For “MWPLALVIASLTLALSGGVSQESSKVLNTNGTSGFLPGGYTCFPHSQPWQAALLVQGRLLCGGVLVHPKWVLTAAHCLKEGLKVYLGKHALGRVEAGEQVREVVHSIPHPEYRRSPTHLNHDHDIMLLELQSPVQLTGYIQTLPLSHNNRLTPGTTCRVSGWGTTTSPQVNYPKTLQCANIQLRSDEECRQVYPGKITDNMLCAGTKEGGKDSCEGDSGGPLVCNRTLYGIVSWGDFPCGQPDRPGVYTRVSRYVLWIRETIRKYETQQQKWLKGPQ”, the “soluble on expression in E. coli” value was “soluble”.
For “MWPTHDLPILSNKSLILRKLQIEDTPRLVELAQDPAMRNFTTIPSPFTVENALEFISSSSVPTDSLVRWAIATADKPSIYLGTIELRAQSPICVDIGYSLHPHARGLGIMPKAVRLVSNYALSVGFHRVEIKIRTSNVASRRATERARATFEGIAHKAELHRGSIYDLAIYSITS”, the “soluble on expression in E. coli” value was “not soluble”.
With “MWSEYSLEVVDAVARNGSFSAAAQELHRVPSAVSYTVRQLEEWLAVPLFERRHRDVELTPAGVWFLQEGRSVIKKMQITRQQCQQIANGWRGQLSIAVDDIVKPARMRQMIVDFYRHFPDVELIVFQEVFNGVWDALADGRVELAIGATRSIPVGGRYAFRDMGMLSWDCVVASDHPLAKMEGPLSDDVLRNWPSLVREDTSRSLPKRTTWLLDNQKRVVVPDWESSATCLSAGLCVGMVPSHFARPWIDRGEWTALALENPFPDAACCLTWQQNDASPALNWMLDYLGDSDTLNREWLRAPERSAPARCLNDDNRQTGHPLPSGAQPDGGALR” the “soluble on expression in E. coli” value was “not soluble”.
With “MWVEKKKDKKGNITYQYRERYTDPRTGKTQKVTTTLAKNTKQAENAARRELEIKIQKILTDYEEEKRLENLIKNEGVIPNDKTLEDMIKEWFDYIQDPKSKERKKGSTLSGYSYGIDSLLNEFLVIEKDKRIQDLTFDDIQAFYDRMIFDFEYQKSYIKRFRAIIRGAFTLAYKKRYIKNLDAINLSKIVTPAKTVDDLINEQVPRYLEKAEAEQIFQVLNGYNPLYTQILELQFHTGMRFGELIALESKNFHDGFLLDIHGTYDHATRSHTRGQKVPPKTRKSFRTIELGDAAVQIIKDRMYHNHFIKNKNSDFLFVTSNDRPYDLGTINSFIASHQIEFNTSTKVSTHVFRHTHISMLAEKSIPIQVIMDRVGHEDRETTEKIYMHVTKKQKTDLVKTLNEL” the “soluble on expression in E. coli” value was “not soluble”.
In the case of “MYALFLLASLLGAALAGPVLGLKECTRGSAVWCQNVKTASDCGAVKHCLQTVWNKPTVKSLPCDICKDVVTAAGDMLKDNATEEEILVYLEKTCDWLPKPNMSASCKEIVDSYLPVILDIIKGEMSRPGEVCSALNLCESLQKHLAELNHQKQLESNKIPELDMTEVVAPFMANIPLLLYPQDGPRSKPQPKDNGDVCQDCIQMVTDIQTAVRTNSTFVQALVEHVKEECDRLGPGMADICKNYISQYSEIAIQMMMHMQPKEICALVGFCDEVKEMPMQTLVPAKVASKNVIPALELVEPIKKHEVPAKSDVYCEVCEFLVKEVTKLIDNNKTEKEILDAFDKMCSKLPKSLSEECQEVVDTYGSSILSILLEEVSPELVCSMLHLCSGTRLPALTVHVTQPKDGGFCEVCKKLVGYLDRNLEKNSTKQEILAALEKGCSFLPDPYQKQCDQFVAEYEPVLIEILVEVMDPSFVCLKIGACPSAHKPLLGTEKCIWGPSYWCQNTETAAQCNAVEHCKRHVWN”, the “soluble on expression in E. coli” value is reported as “soluble”.
In the case of “MYDTVRDRLIHLHHCRGAGWKTIHSLLKVDPTLTAPFSLPPNDLRPLVPLSDAQWTAFFHDLHSIDVQRVIKTYKGRCIRVITVFDSDYPPLLKYIYAPPWVLYAKGDSALLQEWKLISIVGTRRPTKEGIEALNKLVPPLVAAGFTIVSGLAFGIDVCAHQLAVQHGGSTIAVIAGGLDHIYPKEHRPFATLLMNEQLVIAEHPPATRPQAWQFPARNRIISGLSLGTLVVQAKRKSGSLITAAYALEQGREVFAVPGPIGLAESAGPNTLIQHGAKLVQEAADILDEFPYV”, the “soluble on expression in E. coli” value is reported as “not soluble”.
In the case of “MYDYSILPNRIILCVDLRSFYASVSCIKMGLDPMHTKLAVVGDVNRNGSIVLAATPPLKALGVKKMARLYEIPRRKDILVVNPIMSTYIKCSNYITKLALQYVPIEDFHQYSIDEFFMDITDSIHLFAQDPYEFAMKFKREIYDHTRIECTIGIAPNPLMSKVALDIEAKKNKDGIAFWQYEDIPTKLWSIRPLNKFWGISYKTEEKLNRKGIYSIGDLANYPLKYLKQSFGKIGEELHLHSHGIDFSRISEKYVPATTSIGKSQILMRDYTIEEFPIILLEHIEEVCYRLRRQTKLAQTIHFSVGYSKSYTGGIRKTHTLNRPTNLTMDIYHICTYFLHQQYTGEPIRSINISLTNLIQEGEEQISLFDNVTKREQEMKLTKVMDEIRTKFGKNSILRGISYTHSATARHRNTLIGLEHHHHHH”, the “soluble on expression in E. coli” value is reported as “not soluble”.
In the case of “MYEPLHRDAEQKDTAPHDPISILLLGIDERPGDKGRPDSMIVMTVNPKTKKTTMTSIPRDTRVFIKSKNKFSKMNSAYTYGGIEGTVETVEQFLNIPINYYIKINMDGFKDIVDAIGGVTVDNRIDFTLEGVHLSKGKQHLDGKTALTYARMRKDDPRGDFGRQERQREIINEIIHEGAQLKSLTNYQEILAALEKNIKTNLTLDKMIDIQSSYKEAAKDIKQVEIEGEDKKVDSLWYHLVTDEKRMEISKKLRQQLDLKSLEHHHHHH”, the “soluble on expression in E. coli” value is reported as “soluble”.
With “MYEQQQHFMDLQSDSGFGDDSSWLAGDDDLRLSPHQSAAGTNSGNENLDRRLLKDLVEMVPLIEHYMEHKERSSFKRRGSMIYTKMPSKESLSRRGRNASQTVPGRKKRDQEGNDDVMNNSREDDENAKALAGAEKEEMSRLREQVNDLQTKLSEKEEVLKSMEMSKNQVNEIQEKLEATNRLVAEKDMLIKSMQLQLSDTKIKLADKQAALEKTQWEAKTTGTRAIKLQEQLDAVEGDISTFTRVFETLAKTDSKKPDRDYDAVPYEFDHLPYLDDVDETDLRKMEEARLAYVAAVNTAKEREDEESLVMAAQARAYLQSLAFTY” the “soluble on expression in E. coli” value was “soluble”.
With “MYGKLLICATASINVININHYIVELKQHFDEVNILFSPSSKNFINTDVLKLFCDNLYDEIKDPLLNHINIVENHEYILVLPASANTINKIANGICDNLLTTVCLTGYQKLFIFPNMNIRMWGNPFLQKNIDLLKNNDVKVYSPDMNKSFEISSGRYKNNITMPNIENVLNFVLNNEKRPLD” the “soluble on expression in E. coli” value was “soluble”.
